The results in this text go back to paper PMC12186880.

This assay has as its target adenine base editing engineered ribonucleoprotein (BE-eRNP): bipartite NLS-TadA(8.20-m)-linker-nCas9(D10A, C80A)-bipartite NLS protein complexed with sgRNA (Escherichia coli | Streptococcus pyogenes). Briefly: native gel or EMSA.

With “adenine base editing engineered ribonucleoprotein (BE-eRNP): bipartite NLS-TadA(8.20-m)-linker-nCas9(D10A, C80A)-bipartite NLS protein complexed with sgRNA (enzyme)”, the stoichiometry N (commonly the number of molecules, sites or subunits per partner or assembly) stood at 2.
